Test results published in publication PMC5444726, “A CD44-specific peptide, RP-1, exhibits capacities of assisting diagnosis and predicting prognosis of gastric cancer” (Oncotarget, 2017).
Peptide text beside a SMILES is read from it. * marks the point of attachment. FITC = O=C1OC2(c3ccc(O)cc3Oc3cc(O)ccc32)c2ccc(NC(=S)*)cc21

Tests used:
[1] = test system: BGC-823 cells; assay type: cell-based, human; conditions: 200 µM
[2] = test system: nude mice; assay: In vivo toxicity in nude mice (body weight, H&E staining); conditions: 1 mg/kg i.v., one week
Description: All animal procedures were approved by the Ethics Committee of Xi’an Jiaotong University and conducted in accordance with the Helsinki Declaration (1975). Athymic nude mice (male, 4–5 weeks old, with a body weight of 20–25 g) were obtained from the Animal Experiment Center of Xi’an Jiaotong University, Xi’an, China. The SGC-7901 tumor xenografts were generated by subcutaneous injection of 5–8 × 10^6 SGC-7901 cells suspended in 200 μL culture medium into the left axilla of mice. The cells were allowed to grow for 2 weeks until tumor volume reached an estimate of 1 cm^3.
Cell Counting Kit-8 (CCK-8, Beyotime, Shanghai, China) assay and animal experiments were performed to evaluate the in vitro and in vivo toxicity of RP-1 peptide, respectively. For CCK-8 assay, 5 × 10^3 MKN-28, SGC-7901, BGC-823 and GES-1 cells in 100 μL culture medium were incubated into each well of a 96-well plate 24 h before peptide was added. All cells were incubated with FITC-RP-1 0.064 to 200 μM. After incubation for 24 h, 48 h or 72 h, 10 μL CCK-8 reagent were added into each well and further incubated for 3 h. Then, the absorbance at 450 nm was measured with a microplate reader (Bio-Rad, Hercules, CA, USA). In animal experiments, FITC-RP-1 or PBS 1 mg/kg was intravenously injected via the tail vein. The body weight of nude mice was measured every day. […]

[3] = test system: SGC-7901 cells; assay type: cell-based, human; conditions: 200 µM
[4] = test system: MKN-28 cells; assay type: cell-based, human; conditions: 200 µM
[5] = test system: human gastric epithelial cell line GES-1; assay type: cell-based; conditions: 200 µM
[6] = test system: SGC-7901 cells; assay: Binding affinity to gastric cancer cells (fluorescence saturation); set-up: species or system human; conditions: FITC-labeled peptide, 0 to 2.5 μM at 0.25 μM intervals, serum-free RPMI 1640, ambient temperature, 15 min, microplate reader; least squares fit, R^2 = 0.98; read-out: equilibrium dissociation constant (Kd)
Description: 5 × 10^5 SGC-7901 cells were inoculated into each well of a multi-well plate 24h before measurement. Both FITC- RP-1 and FITC-WYP peptide were serially diluted with RPMI 1640 culture medium containing no serum at concentrations ranged from 0 to 2.5 μM at 0.25 μM intervals, and incubated with SGC-7901 cells at ambient temperature for 15 min [40]. After washing twice with pre-cold PBS/0.2% Tween-20 solution, the unbound peptide was rinsed off, and cells were subsequently fixed in 4% paraformaldehyde at ambient temperature for 20 min. […] The equilibrium dissociation constant (Kd) was calculated using a least squares fit of the data with Origin 8.0 software (OriginLab, Massachusetts, USA). I was calculated using the Michaelis-Menten equation I = Imax([X])/(Kd+[X]), in which Imax was the maximum fluorescent intensity corresponding to peptide binding at saturation, which was calculated from the plots; I was the fluorescent intensity measured above; [X] was the concentration of total peptides and estimated to be the concentration of unbound peptide.

[7] = test system: CD44 on MKN-28-CD44-ox cells; assay: Confocal immunofluorescence of peptide binding to CD44-overexpressing MKN-28 cells; assay type: cell-based, human; conditions: 100 μM Alexa Fluor 594 labeled peptide, 20 min, fixed cells, confocal microscopy
Description: Plasmids containing cDNA of CD44 protein were synthesized by GENECHEM, Shanghai, China. Using Pfu polymerase and two oligonucleotides ([…] and […]), the CD44 cDNA was cloned into Xhol and ECOR1 sites of GV146 (GENECHEM, Shanghai, China) by recombinant PCR. Then, CD44-negative MNK-28 cells were transfected with the plasmid with Lipofectamine 2000 reagent (Invitrogen, California, USA), and then the efficiency of CD44 expression in MKN-28 cells was tested. Finally, two cell lines were generated as following: MKN-28-con with no CD44 expression and MKN-28-CD44-ox with CD44 overexpression labeled with enhanced green fluorescent protein (EGFP).
For the preparation of confocal laser microscopy, the transfected MNK-28 cancer cells were washed with phosphate buffer saline (PBS) three times, then fixed with 4% paraformaldehyde at ambient temperature for 30 min, and blocked with 5% BSA (w/v) in PBS at 37°C for 1 h. The blocked cells were sequentially incubated with 100 μM RP-1 or WYP labeled with Alexa Fluor 594 for 20 min, and counterstained with 4,6-diamidino-2-phenylindole (DAPI). […] For the evaluation of the correlation of fluorescent intensities between CD44-EGFP and RP-1-Fluor 594, a semi-quantitative analysis was performed with ImageJ 1.48v software (National Institutes of Health, Maryland, USA) by randomly selecting and observing 10 fields of vision. […]

[8] = test system: SGC-7901 tumor tissue; assay: Fluorescence microscopy of frozen xenograft sections after injection; assay type: in vivo, athymic nude mice; conditions: 3 h after i.v. injection of peptide
Description: Once fluorescence signal reached its peak at the site of tumor, subcutaneous tumor tissues were harvested for further experiment. After shock-frozen with liquid nitrogen, tumor tissues were cut into 5 μm sections and fixed in 4% paraformaldehyde at ambient temperature for 30 min. The coverslips were mounted with glycerol–gelatin containing anti-fading buffer (Bioworld, Minnesota, USA). Finally, the fluorescence images of frozen sections were captured with a fluorescent microscope (Nikon-Eclipse, Tokyo, Japan)

Row | Molecule | cell viability [1] [%] | toxicity in vivo [2] | cell viability [3] [%] | cell viability [4] | cell viability [5] [%] | Kd [6] [nM] | binding of peptide to CD44 on the cell membrane [7] | fluorescence on tumor cells in frozen sections [8]
1 | CC(C)C[C@H](NC(=O)[C@H](Cc1ccc(O)cc1)NC(=O)[C@H](CO)NC(=O)[C@H](Cc1c[nH]c2ccccc12)NC(=O)[C@@H]1CCCN1C(=O)[C@H](Cc1c[nH]cn1)NC(=O)[C@H](Cc1c[nH]c2ccccc12)NC(=S)Nc1ccc2c(c1)C(=O)OC21c2ccc(O)cc2Oc2cc(O)ccc21)C(=O)N[C@@H](Cc1c[nH]c2ccccc12)C(=O)N[C@H](C(=O)N[C@@H](CCC(N)=O)C(=O)N[C@@H](CCC(N)=O)C(=O)N[C@@H](C)C(=O)O)[C@@H](C)O [FITC-RP-1] ({FITC}-WHPWSYLWTQQA-OH; N-terminus and C-terminus assumed) | > 84 | low toxicity in vivo | > 86 | more than 85% | > 91 | 135 |  | 
2 | WYPLAHWQTSWQ [scrambled control peptide … consisting of the same amino acids as RP-1, reference compound] |  |  |  |  |  |  | No fluorescent signal was detected | No fluorescence signal was detected
